According to PMC7886630:

How the values were obtained:
[1] = biological target: deglycosylated ACE2 treated with PNGase F (human) (UniProt Q9BYF1); experiment: AFM single-molecule force spectroscopy
[2] = biological target: soluble recombinant human ACE2 (Gln18-Ser740), His-tagged (human) (UniProt Q9BYF1); experiment: AFM single-molecule force spectroscopy

With “SARS-CoV-1 spike receptor-binding domain (residues 318-510) with C-terminal Fc tag (Fc fusion; modification not given)” the koff [1] was 3.4 s⁻¹ and the koff [2] was 0.57 s⁻¹.
